Experimental findings from article PMC10953581, “SHMT2 Mediates Small‐Molecule‐Induced Alleviation of Alzheimer Pathology Via the 5′UTR‐dependent ADAM10 Translation Initiation” are described below.

To fix the notation:
T1: human SUMO-SHMT2 (Homo sapiens, UniProt P34897 1-504)
T1 sequence: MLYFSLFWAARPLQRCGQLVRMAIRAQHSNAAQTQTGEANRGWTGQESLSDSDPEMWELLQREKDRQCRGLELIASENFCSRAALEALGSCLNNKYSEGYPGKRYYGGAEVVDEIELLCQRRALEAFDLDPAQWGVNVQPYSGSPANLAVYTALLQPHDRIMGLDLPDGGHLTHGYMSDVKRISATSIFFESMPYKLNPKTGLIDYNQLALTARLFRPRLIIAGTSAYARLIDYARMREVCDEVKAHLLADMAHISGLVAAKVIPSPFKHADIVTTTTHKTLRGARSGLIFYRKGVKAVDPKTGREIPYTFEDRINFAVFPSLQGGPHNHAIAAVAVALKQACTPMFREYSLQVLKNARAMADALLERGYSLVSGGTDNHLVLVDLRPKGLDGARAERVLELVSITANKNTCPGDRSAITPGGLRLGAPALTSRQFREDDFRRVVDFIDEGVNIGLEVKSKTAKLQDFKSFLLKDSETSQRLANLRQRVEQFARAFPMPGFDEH

T2: murine SUMO-SHMT2 (Mus musculus, UniProt Q9CZN7 1-504)
T2 sequence: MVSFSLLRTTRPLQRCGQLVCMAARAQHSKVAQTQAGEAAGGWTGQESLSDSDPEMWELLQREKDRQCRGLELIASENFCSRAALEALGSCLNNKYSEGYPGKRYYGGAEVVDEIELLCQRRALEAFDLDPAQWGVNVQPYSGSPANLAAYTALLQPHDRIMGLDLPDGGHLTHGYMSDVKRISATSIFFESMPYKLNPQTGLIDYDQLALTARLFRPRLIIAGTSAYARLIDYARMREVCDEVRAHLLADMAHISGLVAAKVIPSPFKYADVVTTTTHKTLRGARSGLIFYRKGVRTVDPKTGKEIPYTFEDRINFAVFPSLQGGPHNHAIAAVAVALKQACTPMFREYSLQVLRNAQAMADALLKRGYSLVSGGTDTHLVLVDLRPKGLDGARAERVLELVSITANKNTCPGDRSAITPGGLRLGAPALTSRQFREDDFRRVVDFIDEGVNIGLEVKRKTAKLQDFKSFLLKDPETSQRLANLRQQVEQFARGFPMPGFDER

B1: MUT156-175 (ssRNA)
RNA: UGAGUUUCGAAGUAUUUGGG
B2: 156-175 (ssRNA)
RNA: UGAGUUUCGAAGGAGGGGGG
B3: 201-222 (ssRNA)
RNA: AGGAAAGCGGGGAAAGGAGGAA
B4: MUT176-200 (ssRNA)
RNA: GAGAGAAUAUUUAACGAGCAAGGGA
B5: MUT69-90 (ssRNA)
RNA: GGACGGGUAGGGGCUUUAUGUA
B6: 223-244 (ssRNA)
RNA: GGAAACGAACGAGGGGGAGGGA
B7: MUT223-244 (ssRNA)
RNA: GGAAACGAACUAUUUGUAUUUA
B8: 176-200 (ssRNA)
RNA: GAGAGAAGAGGGAACGAGCAAGGGA
B9: MUT201-222 (ssRNA)
RNA: AGUAAAUCGGGUAAAUGAGGAA
B10: 69-90 (ssRNA)
RNA: GGACGGGUAGGGGCGGGAGGUA
B11: mouse 30-57 (ssRNA)
RNA: GAAGAGGCCGAGGGGGAGGGAGGGCCCU
B12: mouse 1-29 (ssRNA)
RNA: GAGGGCAGGGAAGCGGGGAAGGGAGGAAG
B13: mouse 58-86 (ssRNA)
RNA: GUUUUGGCGGAGCAGGGCGCGCGGCUGGG

In one data set the target is T1, human SUMO-SHMT2. Description: EMSA; RNA EMSA (LightShift kit): 10 pmol biotin-RNA, 6 ug protein, 1X EMSA binding buffer, 5% glycerol, 0.1 mg/mL tRNA, 20 uL, 30 min, room temperature; salt and pH not stated. Particulars: protein: recombinant; tags: SUMO; chain copies: 4; label: 5' biotin. Background: Mobility shift assays separate free from complexed probe on a gel.
Take B1: the binding result was “no binding”.
Consider B2, for which the binding result is reported as “binds”.
On to B3, for which the binding result was “binds”.
Same read-out and setting: to B4 belongs “no binding”; to B5, “no binding”.
The same measure, in the same setting: to B6 belongs “binds”; to B7, “no binding”; to B8, “binds”.
Still for that read-out and setting: to B9 belongs “no binding”.
For B10, the binding result was “binds”.

For the next data set, the target named is T2, murine SUMO-SHMT2. The data set is described as above. Particulars: protein: recombinant; tags: SUMO; label: 5' biotin.
Regarding B11, the binding result was “binds”.
On to B12, for which the binding result is “binds”.
On the same count and under the same terms, as for B13, the entry is “no binding”.
